# Laboratory results: patent publication US20240141041A1
# Target: CD52 (human) (UniProt P31358)
# Assay: cell-based or functional assay
substance,measurement,value
CAMPATH (alemtuzumab) (antibody),"depletion of infused CD4CAR T cells in mouse blood, 0.1 mg/kg CAMPATH, 6 h and 48 h",> 95%
